Experiments:
[1] = target: T1, T56.1 tryptic fragment of human WISE (human); assay: Biacore peptide competition, 3 nM antibody preincubated with 30 nM peptide
T1 construct: Multiply truncated human WISE from tryptic digestion, isolated by HPLC; the two pieces are held together by cystine-knot disulfide bonds; also called T56.1 peptide
Description: (§1) To identify which peptides compete with WISE for binding to the antibodies of the invention, rhuWise was immobilized on a CM5 surface with high density. 3 nM of mature antibodies Ab-A, Ab-C and Ab-E were pre-incubated with and without 30 nM peptides and huWise (as control), then injected over the huWise surfaces. As shown in FIGS. 9A and B both T49 and T56.1 peptides blocked the binding of the antibodies to huWISE.

[2] = target: T2, T49 tryptic fragment of human WISE (human); assay: as above
T2 construct: Multiply truncated human WISE from tryptic digestion, isolated by HPLC; the two pieces are held together by cystine-knot disulfide bonds (C1-C5, C2-C6, C3-C7); also called T49 peptide
Description: as §1

[3] = target: T3, mouse WISE (mouse, UniProt Q9CQN4 24-206); assay: KinExA solution equilibrium, rmuWise-coated beads
T3 construct: Recombinant purified protein; also called muWISE; mWISE
T3 sequence: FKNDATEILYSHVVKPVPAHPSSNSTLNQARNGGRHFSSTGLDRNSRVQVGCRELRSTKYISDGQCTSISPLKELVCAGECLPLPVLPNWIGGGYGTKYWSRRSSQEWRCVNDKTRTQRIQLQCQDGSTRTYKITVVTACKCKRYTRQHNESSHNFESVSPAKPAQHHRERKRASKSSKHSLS
Description: (§2) Binding of muAbs with rhuWise and rmuWise were tested on KinExA. Azlactone beads (Pierce) was pre-coated with rhuWise/rmuWise at pH9.0 and blocked with ethanolamine, then further washed with sample buffer (0.1 mg/mL Heparin in BSA/P20/PBS solution). 10 pM and 100 pM of Ab-A, Ab-C and Ab-E were incubated with various concentrations (0.1 pM-3 nM) of rhuWise/rmuWise at room temperature for at least 10 hours before run through the rhuWise/rmuWise coated beads.
(§3) The amount of the bead-bound muAbs were quantified by fluorescent (Cy5) labeled goat anti-mouse IgG (H+L) antibody (Jackson Immuno Research). The binding signal is proportional to the concentration of free muAbs at binding equilibrium. Equilibrium dissociation constant (Kd) was obtained from nonlinear regression of the competition curves using a two-curve one-site homogeneous binding model (KinExA™ Pro software).

[4] = target: T4, human WISE (human, UniProt Q6X4U4 24-206); assay: KinExA solution equilibrium, rhuWise-coated azlactone beads
T4 construct: Recombinant, made in E. coli or mammalian cells; biotinylated in the ELISAs, amine-coupled to CM5 in Biacore; also called huWise; huWISE
T4 sequence: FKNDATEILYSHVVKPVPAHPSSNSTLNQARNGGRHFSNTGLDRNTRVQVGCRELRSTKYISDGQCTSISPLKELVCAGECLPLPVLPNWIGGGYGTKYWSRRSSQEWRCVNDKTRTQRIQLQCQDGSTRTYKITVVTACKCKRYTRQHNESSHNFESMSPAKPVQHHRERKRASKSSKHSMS
Description: as §2, §3

[5] = target: T1, T56.1 tryptic fragment of human WISE; assay: Biacore peptide competition (FIG. 9B)
Description: as §1

[6] = target: T2, T49 tryptic fragment of human WISE; assay: Biacore peptide competition (FIG. 9B)
Description: as §1

[7] = target: T4, human WISE; assay: ELISA, antibody coated, biotinylated human WISE titrated
[8] = target: T4, human WISE; assay: assay not specified (IgG2 from transient transfection)

B1: Ab-C (antibody, V domains shown)
VH: QGQMQQSGAELVKPGASVQLSCKTSGFTFSSTYISWLKQKPGQSLEWIAWIYAGTGGTRYNRKFTGKAQLTVDTSSSTAYMQFSSLTTEDSAIYYCAREGVDGWFTYWGQGTLVTVSA
VL: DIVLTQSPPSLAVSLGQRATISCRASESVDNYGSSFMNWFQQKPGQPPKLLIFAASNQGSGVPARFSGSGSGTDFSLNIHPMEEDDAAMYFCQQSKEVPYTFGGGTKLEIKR
notes: Murine monoclonal antibody from hybridoma, tested in its mature form; also called Antibody C; antibody C
[1]
  binding result: binds
[2]
  binding result: binds
[3]
  binding result: binds
[4]
  Kd: ~4 pM

B2: Ab-E (antibody, mouse IgG1, kappa, V domains shown)
VH: QGQMQQSGAELVKPGASVKLSCKTSGFTFNSHYISWLKQKPGQTLEWIAWIYAGTGGTRYNQKFTGKAQLTVDTSSSTAYMQFSSLTTEDSAIYYCAREGVDGWFTYWGQGTLVTVSA
VL: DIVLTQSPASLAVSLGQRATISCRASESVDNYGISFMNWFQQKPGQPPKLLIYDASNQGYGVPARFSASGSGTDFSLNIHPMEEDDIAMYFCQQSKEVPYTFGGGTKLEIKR
notes: Murine monoclonal antibody from hybridoma, tested in its mature form; polypeptide numbers 26 and 28 and the light/heavy assignment are inferred; also called Antibody E; antibody E
[1]
  binding result: binds
[2]
  binding result: binds
[3]
  binding result: binds
[4]
  Kd: ~18 pM

B3: Ab-P (antibody, V domains shown)
VH: EVRLVESGGGLVQPGRSLKLSCAASGFPFSNYGMAWVRQAPTRGLEWVASITYDGSITFYRDSVKGRFTISRDNAKSTLYLQMDSLRSEDTATYYCTSSDTTDYYHGGFWFAYWGQGTLVTVSS
VL: DIVLTQSPALAVSLGQRATLSCRASQSVSISGHNLMHWYQQKPGQQPKLLIYRASNLPSGIPARFSGSGSGTGFTLTINPVQADDIATYYCQQSRESPWTFGGGTTLELKR
notes: also called Antibody P
[5]
  binding result: binds
[6]
  binding result: binds

B4: Ab-A (antibody, V domains shown)
VH: QIHLVQSGPELKKPGETVKISCKASGFSFTTYGMSWVKQAPGKGLKWMGWINTYSGVPTYADDFKGRFAFSLETSASTAYLQINNLKNEDTATYFCVRGREYYYGSGIAFWGQGTLVTVSA
VL: DVVMTQTPLSLPVSLGDQASISCRSSQSLEHSNGNTYLHWYLQKPGQSPKLLIYKVSNRFSGVPDRFSGSGSGTDFTLKISRVEAEDLGVYFCSQSTHVPLTFGAGTKVELKR
notes: Murine monoclonal antibody from hybridoma, tested in its mature form; The entries may still carry a signal peptide; also called Antibody A; antibody A
[1]
  binding result: binds
[2]
  binding result: binds
[3]
  binding result: binds
[4]
  Kd: ~2 pM

B5: Ab-B (antibody, V domains shown)
VH: QVQLVQSGAEVKKPGASVKVSCKASGYTFTTYGMSWVRQAPGQGLEWMGWINTYSGVPTYADDFKGRFVFSLDTSVSTAYLQINSLKAEDTAVYYCARGREYYYGSGIAFWGQGTLVTVSS
VL: DVVMTQSPLSLPVTLGQPASISCRSSQSLEHSNGNTYLHWYLQKPGQSPQLLIYKVSNRFSGVPDRFSGSGSGTDFTLKISRVEAEDVGVYFCSQSTHVPLTFGGGTKVEIKR
notes: Humanized Ab-A, human kappa / human IgG2
[7]
  binding result: binds

B6: Ab-G (antibody, human IgG2, kappa, V domains shown)
VH: QVQLVQSGAEVKKPGASVKVSCKASGYTFTTYGMSWVKQAPGQGLEWMGWINTYSGVPTYADDFKGRFVFSLDTSVSTAYLQINSLKAEDTAVYFCVRGREYYYGSGIAFWGQGTLVTVSS
VL: DVVMTQSPLSLPVTLGQPASISCRSSQSLEHSNGNTYLHWYLQKPGQSPQLLIYKVSNRFSGVPDRFSGSGSGTDFTLKISRVEAEDVGVYFCSQSTHVPLTFGGGTKVEIKR
notes: as for B5
[7]
  binding result: binds

B7: Ab-D (antibody, V domains shown)
VH: QVQLVQSGAEVKKPGSSVKVSCKASGGTFSSTYISWVRQAPGQGLEWMGWIYAGTGGTRYNRKFTGRVTITADESTSTAYMELSSLRSEDTAVYYCAREGVDGWFTYWGQGTLVTVSS
VL: DIQMTQSPSSLSASVGDRVTISCRASESVDNYGSSFMNWYQQKPGKAPKLLIYAASNQGSGVPSRFSGSGSGTDFTLTISSLQPEDFATYYCQQSKEVPYTFGQGTKLEIKR
notes: Humanized Ab-C, human kappa / human IgG2
[7]
  binding result: binds

B8: light chain of SEQ ID NO: 112 paired with the heavy chain of SEQ ID NO: 24 (antibody, human IgG2, kappa, V domains shown)
VH: QVQLVQSGAEVKKPGSSVKVSCKASGGTFSSTYISWVRQAPGQGLEWMGWIYAGTGGTRYNRKFTGRVTITADESTSTAYMELSSLRSEDTAVYYCAREGVDGWFTYWGQGTLVTVSS
VL: DIQMTQSPGTLSLSPGERATLSCRTSQSVSSTSVAWYQQKPGQAPRLLMYDASSRAAGIPDRFSGSGSVTDFTLTISRLEPEDFATYYCQQSYSLPYTFGQGTKVEIKR
[8]
  binding result: binds

B9: light chain of SEQ ID NO: 106 paired with the heavy chain of SEQ ID NO: 24 (antibody, human IgG2, lambda, V domains shown)
VH: QVQLVQSGAEVKKPGSSVKVSCKASGGTFSSTYISWVRQAPGQGLEWMGWIYAGTGGTRYNRKFTGRVTITADESTSTAYMELSSLRSEDTAVYYCAREGVDGWFTYWGQGTLVTVSS
VL: NFMLTQPHSVSESPGKTITISCTRSSGSISSNYVQWYQQRPGSSPRIVMSEDDQRPSGVSDRFSGSIDISSNSAFLTISGLKPEDEGDYYCQSYDTDIPYVFGTGTKVTVLG
[8]
  binding result: binds

B10: light chain of SEQ ID NO: 108 paired with the heavy chain of SEQ ID NO: 24 (antibody, human IgG2, kappa, V domains shown)
VH: QVQLVQSGAEVKKPGSSVKVSCKASGGTFSSTYISWVRQAPGQGLEWMGWIYAGTGGTRYNRKFTGRVTITADESTSTAYMELSSLRSEDTAVYYCAREGVDGWFTYWGQGTLVTVSS
VL: DIQMTQSPSSLSASVGDRITISCQASQDIDNYLNWYQQKSGKAPKLLIYDAYNLKAGVPSRFRGSRSGTDFFLTISSLQPEDFATYYCLQQYRYPLTFGGGTKVEIKR
[8]
  binding result: binds

B11: light chain of SEQ ID NO: 110 paired with the heavy chain of SEQ ID NO: 24 (antibody, human IgG2, lambda, V domains shown)
VH: QVQLVQSGAEVKKPGSSVKVSCKASGGTFSSTYISWVRQAPGQGLEWMGWIYAGTGGTRYNRKFTGRVTITADESTSTAYMELSSLRSEDTAVYYCAREGVDGWFTYWGQGTLVTVSS
VL: QSVLTQPPSVSGAPGQRVTISCTGGSSNIGAGYEVHWYQLVPGRAPRFLIHGDNDRPSGVPDRFSASESGSSSFLAISGLQDDDEADYYCQSYDTSLSAWVFGGGTKLTVLG
[8]
  binding result: binds

B12: light chain of SEQ ID NO: 114 paired with the heavy chain of SEQ ID NO: 24 (antibody, human IgG2, kappa, V domains shown)
VH: QVQLVQSGAEVKKPGSSVKVSCKASGGTFSSTYISWVRQAPGQGLEWMGWIYAGTGGTRYNRKFTGRVTITADESTSTAYMELSSLRSEDTAVYYCAREGVDGWFTYWGQGTLVTVSS
VL: NIQMTQSPGTLSLSPGERATLSCRASQSVTGNHLAWYQQKPGQAPRVLMYDTSSRATGIPDRFSGSGSGTDFTLTISSLQPEDIATYYCQQFDNLPYTFGQGTKLEIKR
[8]
  binding result: binds

B13: light chain of SEQ ID NO: 120 paired with the heavy chain of SEQ ID NO: 24 (antibody, human IgG2, kappa, V domains shown)
VH: QVQLVQSGAEVKKPGSSVKVSCKASGGTFSSTYISWVRQAPGQGLEWMGWIYAGTGGTRYNRKFTGRVTITADESTSTAYMELSSLRSEDTAVYYCAREGVDGWFTYWGQGTLVTVSS
VL: DIQMTQSPATLSLSPGERATLSCRASRSVSSNLAWYQQKPGRAPRLLMFGASTRATGVPARFSGSGSGTEFTLTISSLQSEDVATYYCQHDNELPLTFGGGTKVELKR
[8]
  binding result: binds

B14: light chain of SEQ ID NO: 116 paired with the heavy chain of SEQ ID NO: 24 (antibody, human IgG2, kappa, V domains shown)
VH: QVQLVQSGAEVKKPGSSVKVSCKASGGTFSSTYISWVRQAPGQGLEWMGWIYAGTGGTRYNRKFTGRVTITADESTSTAYMELSSLRSEDTAVYYCAREGVDGWFTYWGQGTLVTVSS
VL: DIQMTQSPSSLSASVGDRVTITCRASRDISVYVNWYQLKPGQAPRLLIYGASNLGFGVPSRFSGSGYGTDFALTISGLQPEDFATYSCQQSYSIPLTFGQGTRVDTKR
[8]
  binding result: binds

B15: Ab-O (antibody, human IgG2, V domains shown)
VH: QVQLVQSGAEVKKPGSSVKVSCKASGGTFSSTYISWVRQAPGQGLEWMGWIYAGTGGTRYNRKFTGRVTITADESTSTAYMELSSLRSEDTAVYYCAREGVDGWFTYWGQGTLVTVSS
VL: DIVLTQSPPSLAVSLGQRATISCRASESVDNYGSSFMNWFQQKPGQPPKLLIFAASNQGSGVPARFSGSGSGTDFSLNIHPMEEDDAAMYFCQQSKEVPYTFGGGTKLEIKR
notes: Human IgG2 heavy chain
[7]
  binding result: binds

B16: light chain of SEQ ID NO: 118 paired with the heavy chain of SEQ ID NO: 24 (antibody, human IgG2, kappa, V domains shown)
VH: QVQLVQSGAEVKKPGSSVKVSCKASGGTFSSTYISWVRQAPGQGLEWMGWIYAGTGGTRYNRKFTGRVTITADESTSTAYMELSSLRSEDTAVYYCAREGVDGWFTYWGQGTLVTVSS
VL: DIQMTQSPDSLSASVGDRITISCQASQDIDNYLNWYQQRSGKAPKLLIYDAYNLKAGVPSRFRGSRSGTDFFLTISSLQPEDFGTYYCLQQSSYPLTFGQGTKVEIKR
[8]
  binding result: binds

Reference: patent US20090130114A1 (Amgen, published 2009)
